Test results reported in patent US20230272029A1, “CO-AGONISTS AT GLP-1 AND GIP RECEPTORS SUITABLE FOR ORAL DELIVERY” (Novo Nordisk A/S, priority 2020, published 2023).
Starred links: 1 amine or outer side, 2 acyl side, 3 side chain; linkers in the order of their positions; H or OH if unused. Non-standard residues stand in square brackets, D forms with d. Groups on a side chain read outwards from the residue. No end group written: not given here. *: point of attachment. C18 diacid = O=C(O)CCCCCCCCCCCCCCCCC(=O)*; γGlu = O=C(O)[C@H](CCC(=O)[*:2])N[*:1]; εLys = N[C@@H](CCCCN[*:1])C(=O)[*:2]; AEEA = NCCOCCOCC(=O)O; Aib = CC(C)(N)C(=O)O

Legend:
human GLP-1 receptor = human GLP-1 receptor (human, UniProt P43220 24-463); test: cell-based or functional assay
human GIP receptor = biological target: T1, human GIP receptor (human, UniProt P48546 22-466); test: cell-based or functional assay
T1 sequence (looked up): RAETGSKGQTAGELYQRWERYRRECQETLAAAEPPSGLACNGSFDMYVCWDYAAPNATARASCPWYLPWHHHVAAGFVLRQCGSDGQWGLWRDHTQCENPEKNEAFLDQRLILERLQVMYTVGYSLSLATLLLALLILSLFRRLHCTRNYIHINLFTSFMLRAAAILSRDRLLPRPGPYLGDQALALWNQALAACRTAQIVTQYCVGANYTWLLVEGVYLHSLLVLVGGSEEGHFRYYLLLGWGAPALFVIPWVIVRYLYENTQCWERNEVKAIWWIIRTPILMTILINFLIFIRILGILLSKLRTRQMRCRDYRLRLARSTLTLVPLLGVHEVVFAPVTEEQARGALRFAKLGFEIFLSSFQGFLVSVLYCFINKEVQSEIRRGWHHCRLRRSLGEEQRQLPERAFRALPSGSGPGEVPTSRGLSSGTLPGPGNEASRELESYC

B1: Compound No. 10 (peptide)
peptide: Y[Aib]EGTFTSDYSIYLEK([AEEA-AEEA-γGlu-C18 diacid])QAAREFIEWLLAGGPSSGAPPPS-OH
modifications: N-terminus assumed
SMILES: CC[C@H](C)[C@H](NC(=O)[C@H](Cc1ccccc1)NC(=O)[C@H](CCC(=O)O)NC(=O)[C@H](CCCNC(=N)N)NC(=O)[C@H](C)NC(=O)[C@H](C)NC(=O)[C@H](CCC(N)=O)NC(=O)[C@H](CCCCNC(=O)COCCOCCNC(=O)COCCOCCNC(=O)CC[C@H](NC(=O)CCCCCCCCCCCCCCCCC(=O)O)C(=O)O)NC(=O)[C@H](CCC(=O)O)NC(=O)[C@H](CC(C)C)NC(=O)[C@H](Cc1ccc(O)cc1)NC(=O)[C@@H](NC(=O)[C@H](CO)NC(=O)[C@H](Cc1ccc(O)cc1)NC(=O)[C@H](CC(=O)O)NC(=O)[C@H](CO)NC(=O)[C@@H](NC(=O)[C@H](Cc1ccccc1)NC(=O)[C@@H](NC(=O)CNC(=O)[C@H](CCC(=O)O)NC(=O)C(C)(C)NC(=O)[C@@H](N)Cc1ccc(O)cc1)[C@@H](C)O)[C@@H](C)O)[C@@H](C)CC)C(=O)N[C@@H](CCC(=O)O)C(=O)N[C@@H](Cc1c[nH]c2ccccc12)C(=O)N[C@@H](CC(C)C)C(=O)N[C@@H](CC(C)C)C(=O)N[C@@H](C)C(=O)NCC(=O)NCC(=O)N1CCC[C@H]1C(=O)N[C@@H](CO)C(=O)N[C@@H](CO)C(=O)NCC(=O)N[C@@H](C)C(=O)N1CCC[C@H]1C(=O)N1CCC[C@H]1C(=O)N1CCC[C@H]1C(=O)N[C@@H](CO)C(=O)O
Human GLP-1 receptor
  hGLP-1R, CRE Luc 0% HSA EC50 (pM): 3.9 pM
  hGLP-1R, CRE Luc 1% HSA EC50 (pM): 940 pM
Human GIP receptor
  hGIPR, CRE Luc 1% HSA EC50 (pM): 1750 pM

B2: Compound No. 7 (peptide)
peptide: Y[Aib]EGTFTSDYSIYLEK([AEEA-AEEA-γGlu-C18 diacid])QAAREFVNWLLAGGPSSGAPPPS-NH2
modifications: N-terminus assumed
SMILES: CC[C@H](C)[C@H](NC(=O)[C@H](CO)NC(=O)[C@H](Cc1ccc(O)cc1)NC(=O)[C@H](CC(=O)O)NC(=O)[C@H](CO)NC(=O)[C@@H](NC(=O)[C@H](Cc1ccccc1)NC(=O)[C@@H](NC(=O)CNC(=O)[C@H](CCC(=O)O)NC(=O)C(C)(C)NC(=O)[C@@H](N)Cc1ccc(O)cc1)[C@@H](C)O)[C@@H](C)O)C(=O)N[C@@H](Cc1ccc(O)cc1)C(=O)N[C@@H](CC(C)C)C(=O)N[C@@H](CCC(=O)O)C(=O)N[C@@H](CCCCNC(=O)COCCOCCNC(=O)COCCOCCNC(=O)CC[C@H](NC(=O)CCCCCCCCCCCCCCCCC(=O)O)C(=O)O)C(=O)N[C@@H](CCC(N)=O)C(=O)N[C@@H](C)C(=O)N[C@@H](C)C(=O)N[C@@H](CCCNC(=N)N)C(=O)N[C@@H](CCC(=O)O)C(=O)N[C@@H](Cc1ccccc1)C(=O)N[C@H](C(=O)N[C@@H](CC(N)=O)C(=O)N[C@@H](Cc1c[nH]c2ccccc12)C(=O)N[C@@H](CC(C)C)C(=O)N[C@@H](CC(C)C)C(=O)N[C@@H](C)C(=O)NCC(=O)NCC(=O)N1CCC[C@H]1C(=O)N[C@@H](CO)C(=O)N[C@@H](CO)C(=O)NCC(=O)N[C@@H](C)C(=O)N1CCC[C@H]1C(=O)N1CCC[C@H]1C(=O)N1CCC[C@H]1C(=O)N[C@@H](CO)C(N)=O)C(C)C
Human GLP-1 receptor
  hGLP-1R, CRE Luc 0% HSA EC50 (pM): 4.2 pM
  hGLP-1R, CRE Luc 1% HSA EC50 (pM): 513 pM
Human GIP receptor
  hGIPR, CRE Luc 0% HSA EC50 (pM): 28.7 pM
  hGIPR, CRE Luc 1% HSA EC50 (pM): 687 pM

B3: Compound No. 6 (peptide)
peptide: Y[Aib]EGTFTSDYSIYLEK([εLys-εLys-γGlu-C18 diacid])QAAREFVNWLLAGGPSSGAPPPS-NH2
modifications: N-terminus assumed
SMILES: CC[C@H](C)[C@H](NC(=O)[C@H](CO)NC(=O)[C@H](Cc1ccc(O)cc1)NC(=O)[C@H](CC(=O)O)NC(=O)[C@H](CO)NC(=O)[C@@H](NC(=O)[C@H](Cc1ccccc1)NC(=O)[C@@H](NC(=O)CNC(=O)[C@H](CCC(=O)O)NC(=O)C(C)(C)NC(=O)[C@@H](N)Cc1ccc(O)cc1)[C@@H](C)O)[C@@H](C)O)C(=O)N[C@@H](Cc1ccc(O)cc1)C(=O)N[C@@H](CC(C)C)C(=O)N[C@@H](CCC(=O)O)C(=O)N[C@@H](CCCCNC(=O)[C@@H](N)CCCCNC(=O)[C@@H](N)CCCCNC(=O)CC[C@H](NC(=O)CCCCCCCCCCCCCCCCC(=O)O)C(=O)O)C(=O)N[C@@H](CCC(N)=O)C(=O)N[C@@H](C)C(=O)N[C@@H](C)C(=O)N[C@@H](CCCNC(=N)N)C(=O)N[C@@H](CCC(=O)O)C(=O)N[C@@H](Cc1ccccc1)C(=O)N[C@H](C(=O)N[C@@H](CC(N)=O)C(=O)N[C@@H](Cc1c[nH]c2ccccc12)C(=O)N[C@@H](CC(C)C)C(=O)N[C@@H](CC(C)C)C(=O)N[C@@H](C)C(=O)NCC(=O)NCC(=O)N1CCC[C@H]1C(=O)N[C@@H](CO)C(=O)N[C@@H](CO)C(=O)NCC(=O)N[C@@H](C)C(=O)N1CCC[C@H]1C(=O)N1CCC[C@H]1C(=O)N1CCC[C@H]1C(=O)N[C@@H](CO)C(N)=O)C(C)C
Human GLP-1 receptor
  hGLP-1R, CRE Luc 0% HSA EC50 (pM): 3.4 pM
  hGLP-1R, CRE Luc 1% HSA EC50 (pM): 243 pM
Human GIP receptor
  hGIPR, CRE Luc 0% HSA EC50 (pM): 18.5 pM
  hGIPR, CRE Luc 1% HSA EC50 (pM): 434 pM

B4: Compound No. 8 (peptide)
peptide: Y[Aib]EGTFTSDYSIYLEK([εLys-εLys-γGlu-C18 diacid])QAAREFINWLLAGGPSSGAPPPS-NH2
modifications: N-terminus assumed
SMILES: CC[C@H](C)[C@H](NC(=O)[C@H](Cc1ccccc1)NC(=O)[C@H](CCC(=O)O)NC(=O)[C@H](CCCNC(=N)N)NC(=O)[C@H](C)NC(=O)[C@H](C)NC(=O)[C@H](CCC(N)=O)NC(=O)[C@H](CCCCNC(=O)[C@@H](N)CCCCNC(=O)[C@@H](N)CCCCNC(=O)CC[C@H](NC(=O)CCCCCCCCCCCCCCCCC(=O)O)C(=O)O)NC(=O)[C@H](CCC(=O)O)NC(=O)[C@H](CC(C)C)NC(=O)[C@H](Cc1ccc(O)cc1)NC(=O)[C@@H](NC(=O)[C@H](CO)NC(=O)[C@H](Cc1ccc(O)cc1)NC(=O)[C@H](CC(=O)O)NC(=O)[C@H](CO)NC(=O)[C@@H](NC(=O)[C@H](Cc1ccccc1)NC(=O)[C@@H](NC(=O)CNC(=O)[C@H](CCC(=O)O)NC(=O)C(C)(C)NC(=O)[C@@H](N)Cc1ccc(O)cc1)[C@@H](C)O)[C@@H](C)O)[C@@H](C)CC)C(=O)N[C@@H](CC(N)=O)C(=O)N[C@@H](Cc1c[nH]c2ccccc12)C(=O)N[C@@H](CC(C)C)C(=O)N[C@@H](CC(C)C)C(=O)N[C@@H](C)C(=O)NCC(=O)NCC(=O)N1CCC[C@H]1C(=O)N[C@@H](CO)C(=O)N[C@@H](CO)C(=O)NCC(=O)N[C@@H](C)C(=O)N1CCC[C@H]1C(=O)N1CCC[C@H]1C(=O)N1CCC[C@H]1C(=O)N[C@@H](CO)C(N)=O
Human GLP-1 receptor
  hGLP-1R, CRE Luc 0% HSA EC50 (pM): 2.3 pM
  hGLP-1R, CRE Luc 1% HSA EC50 (pM): 82.1 pM
Human GIP receptor
  hGIPR, CRE Luc 0% HSA EC50 (pM): 6.7 pM
  hGIPR, CRE Luc 1% HSA EC50 (pM): 191 pM
